Data as given in paper PMC10397247.

Key:
[1] = target: T1, P8SH; assay: two-hybrid library CCNG1;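 also: natural log of median RNA to DNA barcode read ratio; higher means stronger binding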
T1 chain: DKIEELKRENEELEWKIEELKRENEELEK

[2] = target: T2, P8A-bH; assay: two-hybrid library CCNG1;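 also: natural log of median RNA to DNA barcode read ratio; higher means stronger binding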
T2 chain: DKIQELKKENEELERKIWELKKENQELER

[3] = target: T3, P5A-bH; assay: two-hybrid library CCNG1; details: mean of both orientations;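 also: natural log of median RNA to DNA barcode read ratio; higher means stronger binding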
T3 chain: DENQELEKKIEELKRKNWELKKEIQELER

[4] = target: T4, P6A-bH; assay: two-hybrid library CCNG1;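 also: natural log of median RNA to DNA barcode read ratio; higher means stronger binding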
T4 chain: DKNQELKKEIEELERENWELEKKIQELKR

[5] = target: T5, P7A-bH; assay: two-hybrid library CCNG1;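 also: natural log of median RNA to DNA barcode read ratio; higher means stronger binding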
T5 chain: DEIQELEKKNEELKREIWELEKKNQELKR

[6] = target: T6, P3A-bH; assay: two-hybrid library CCNG1;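 also: natural log of median RNA to DNA barcode read ratio; higher means stronger binding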
T6 chain: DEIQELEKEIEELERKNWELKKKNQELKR

[7] = target: T7, P9A-bH; assay: two-hybrid library CCNG1
T7 chain: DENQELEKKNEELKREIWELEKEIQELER

[8] = target: T8, P4A-bH; assay: two-hybrid library CCNG1
T8 chain: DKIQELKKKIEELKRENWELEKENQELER

[9] = target: T9, P6A; assay: two-hybrid library CCNG1
T9 chain: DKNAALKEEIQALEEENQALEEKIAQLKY

[10] = target: T10, P5A; assay: two-hybrid library CCNG1
T10 chain: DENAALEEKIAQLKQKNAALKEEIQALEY

[11] = target: T11, P3A; assay: two-hybrid library CCNG1
T11 chain: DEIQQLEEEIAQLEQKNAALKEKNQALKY

[12] = target: T12, P4A; assay: two-hybrid library CCNG1
T12 chain: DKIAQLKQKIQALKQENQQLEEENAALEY

[13] = target: T13, P8A; assay: two-hybrid library CCNG1
T13 chain: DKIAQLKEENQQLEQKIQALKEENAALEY

[14] = target: T14, P7A; assay: two-hybrid library CCNG1
T14 chain: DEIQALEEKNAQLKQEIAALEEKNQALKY

[15] = target: T15, P9A; assay: two-hybrid library CCNG1
T15 chain: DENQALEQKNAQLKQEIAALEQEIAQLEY

[16] = target: T16, 4H491-bA; assay: two-hybrid library CCNG1
T16 chain: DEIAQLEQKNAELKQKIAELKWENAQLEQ

[17] = target: T17, 4H48-bA; assay: two-hybrid library CCNG1
T17 chain: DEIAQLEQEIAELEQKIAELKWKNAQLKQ

[18] = target: T18, 4H2944-bA; assay: two-hybrid library CCNG1
T18 chain: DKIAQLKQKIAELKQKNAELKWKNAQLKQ

[19] = target: T19, 4H342-bA; assay: two-hybrid library CCNG1
T19 chain: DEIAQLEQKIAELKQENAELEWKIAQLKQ

[20] = target: T20, 4H3632-bN; assay: two-hybrid library CCNG1
T20 chain: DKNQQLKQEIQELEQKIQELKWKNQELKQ

[21] = target: T21, 4H496-bN; assay: two-hybrid library CCNG1
T21 chain: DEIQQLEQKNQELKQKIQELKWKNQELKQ

[22] = target: T22, P1mSN; assay: two-hybrid library CCNG1
T22 chain: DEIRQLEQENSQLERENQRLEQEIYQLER

[23] = target: T23, 4H2931-bH; assay: two-hybrid library CCNG1
T23 chain: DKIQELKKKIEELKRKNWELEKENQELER

[24] = target: T24, 4H949-bH; assay: two-hybrid library CCNG1
T24 chain: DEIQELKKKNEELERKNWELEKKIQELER

[25] = target: T25, 4H3041-bH; assay: two-hybrid library CCNG1
T25 chain: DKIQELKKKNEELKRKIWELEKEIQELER

[26] = target: T26, 4H3381-bH; assay: two-hybrid library CCNG1
T26 chain: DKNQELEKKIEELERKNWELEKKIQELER

[27] = target: T27, 4H2444-bH; assay: two-hybrid library CCNG1
T27 chain: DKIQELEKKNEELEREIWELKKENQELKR

[28] = target: T28, 4H264-bH; assay: two-hybrid library CCNG1
T28 chain: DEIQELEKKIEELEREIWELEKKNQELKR

[29] = target: T29, 4H235-bH; assay: two-hybrid library CCNG1
T29 chain: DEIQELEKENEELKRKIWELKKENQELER

[30] = target: T30, 4H730-bH; assay: two-hybrid library CCNG1
T30 chain: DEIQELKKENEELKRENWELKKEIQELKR

[31] = target: T31, 4H349-bH; assay: two-hybrid library CCNG1
T31 chain: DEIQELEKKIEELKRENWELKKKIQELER

[32] = target: T32, 4H2518-bH; assay: two-hybrid library CCNG1
T32 chain: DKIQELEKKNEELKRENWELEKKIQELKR

[33] = target: T33, 4H932-bH; assay: two-hybrid library CCNG1
T33 chain: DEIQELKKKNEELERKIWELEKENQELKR

[34] = target: T34, 4H2760-bH; assay: two-hybrid library CCNG1
T34 chain: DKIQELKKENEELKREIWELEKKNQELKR

[35] = target: T35, 4H3364-bH; assay: two-hybrid library CCNG1
T35 chain: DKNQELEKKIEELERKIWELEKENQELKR

[36] = target: T36, 4H56-bH; assay: two-hybrid library CCNG1
T36 chain: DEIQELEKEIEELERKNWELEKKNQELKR

[37] = target: T37, 4H3297-bH; assay: two-hybrid library CCNG1
T37 chain: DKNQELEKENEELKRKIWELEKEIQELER

[38] = target: T38, 4H796-bH; assay: two-hybrid library CCNG1
T38 chain: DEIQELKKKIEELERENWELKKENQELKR

[39] = target: T39, 4H2585-bH; assay: two-hybrid library CCNG1
T39 chain: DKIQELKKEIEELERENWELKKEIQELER

[40] = target: T40, 4H2859-bH; assay: two-hybrid library CCNG1
T40 chain: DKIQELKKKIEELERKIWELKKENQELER

[41] = target: T41, P5mS; assay: two-hybrid library CCNG1
T41 chain: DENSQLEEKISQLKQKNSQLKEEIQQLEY

[42] = target: T42, P7mS; assay: two-hybrid library CCNG1
T42 chain: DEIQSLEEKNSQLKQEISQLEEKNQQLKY

[43] = target: T43, P8mS; assay: two-hybrid library CCNG1
T43 chain: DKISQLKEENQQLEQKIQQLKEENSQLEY

[44] = target: T44, P9mS; assay: two-hybrid library CCNG1
T44 chain: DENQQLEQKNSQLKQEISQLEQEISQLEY

[45] = target: T45, P6mS; assay: two-hybrid library CCNG1
T45 chain: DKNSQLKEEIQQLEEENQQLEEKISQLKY

[46] = target: T46, O4; assay: two-hybrid library CC0; details: mean of both orientations
T46 chain: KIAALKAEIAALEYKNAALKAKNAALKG

[47] = target: T47, O8; assay: two-hybrid library CC0; details: mean of both orientations
T47 chain: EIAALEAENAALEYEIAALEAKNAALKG

[48] = target: T48, O2; assay: two-hybrid library CC0; details: mean of both orientations
T48 chain: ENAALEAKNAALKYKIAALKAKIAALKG

[49] = target: T49, O7; assay: two-hybrid library CC0; details: mean of both orientations
T49 chain: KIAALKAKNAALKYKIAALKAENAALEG

[50] = target: T50, O15; assay: two-hybrid library CC0; details: mean of both orientations
T50 chain: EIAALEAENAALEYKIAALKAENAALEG

[51] = target: T51, O16; assay: two-hybrid library CC0; details: mean of both orientations
T51 chain: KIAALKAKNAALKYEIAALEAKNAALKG

[52] = target: T52, O14; assay: two-hybrid library CC0; details: mean of both orientations
T52 chain: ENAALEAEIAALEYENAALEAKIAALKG

[53] = target: T53, O6; assay: two-hybrid library CC0; details: mean of both orientations
T53 chain: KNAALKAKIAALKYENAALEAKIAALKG

[54] = target: T54, O3; assay: two-hybrid library CC0; details: mean of both orientations
T54 chain: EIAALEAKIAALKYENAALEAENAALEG

[55] = target: T55, O9; assay: two-hybrid library CC0; details: mean of both orientations
T55 chain: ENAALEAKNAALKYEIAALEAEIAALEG

[56] = target: T56, O5; assay: two-hybrid library CC0; details: mean of both orientations
T56 chain: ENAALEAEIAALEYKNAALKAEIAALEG

[57] = target: T57, O7; assay: two-hybrid library CCNG1
T57 chain: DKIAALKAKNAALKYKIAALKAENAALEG

[58] = target: T58, O8; assay: two-hybrid library CCNG1
T58 chain: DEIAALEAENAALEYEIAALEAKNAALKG

[59] = target: T59, O15; assay: two-hybrid library CCNG1
T59 chain: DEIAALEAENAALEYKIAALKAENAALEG

[60] = target: T60, O14; assay: two-hybrid library CCNG1
T60 chain: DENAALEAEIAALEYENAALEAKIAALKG

[61] = target: T61, O4; assay: two-hybrid library CCNG1
T61 chain: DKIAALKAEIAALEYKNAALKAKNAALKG

[62] = target: T62, O16; assay: two-hybrid library CCNG1
T62 chain: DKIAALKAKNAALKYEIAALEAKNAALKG

[63] = target: T63, O5; assay: two-hybrid library CCNG1
T63 chain: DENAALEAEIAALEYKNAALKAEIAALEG

[64] = target: T64, O2; assay: two-hybrid library CCNG1
T64 chain: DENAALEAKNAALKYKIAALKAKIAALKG

[65] = target: T65, O9; assay: two-hybrid library CCNG1
T65 chain: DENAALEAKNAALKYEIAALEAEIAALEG

[66] = target: T66, O6; assay: two-hybrid library CCNG1
T66 chain: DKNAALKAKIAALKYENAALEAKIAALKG

[67] = target: T67, O3; assay: two-hybrid library CCNG1
T67 chain: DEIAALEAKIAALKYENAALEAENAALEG

## DKIEELKRENEELEWKIEELKRENEELEK [P8SH]
[1]
  interaction score: -0.00526

## DKIQELKKKNEELKRKNWELKKKIQELKR [P2A-bH]
[2]
  interaction score: 0.132
[3]
  interaction score: -1.23
[4]
  interaction score: -0.802
[5]
  interaction score: -0.557
[6]
  interaction score: -1.95
[7]
  interaction score: -1.02
[8]
  interaction score: 0.539

## DEIQQLEEEIAQLEQKNAALKEKNQALKY [P3A]
[9]
  interaction score: -0.905
[10]
  interaction score: -0.901
[11]
  interaction score: -0.882
[12]
  interaction score: 2.6
[13]
  interaction score: -0.435
[14]
  interaction score: -0.23
[15]
  interaction score: 0.0927

## DKIAQLKQKIAELKQKNAELKWKNAQLKQ [4H2944-bA]
[16]
  interaction score: -0.569
[17]
  interaction score: -1.05
[18]
  interaction score: -0.797
[19]
  interaction score: 1.77

## DKNQQLKQEIQELEQKIQELKWKNQELKQ [4H3632-bN]
[20]
  interaction score: 1.05
[21]
  interaction score: -0.174
[22]
  interaction score: -0.649

## DEIQELEKENEELKRKIWELKKENQELER [4H235-bH]
[23]
  interaction score: -0.301
[24]
  interaction score: -0.845
[25]
  interaction score: 0.0126
[26]
  interaction score: 0
[27]
  interaction score: 0.0109
[28]
  interaction score: -0.718
[29]
  interaction score: 0.982
[30]
  interaction score: -0.176
[31]
  interaction score: 0.108
[32]
  interaction score: -0.135
[18]
  interaction score: -0.835
[33]
  interaction score: -0.443
[34]
  interaction score: 1.12
[35]
  interaction score: -0.442
[36]
  interaction score: 0.0558
[37]
  interaction score: 0.0762
[38]
  interaction score: -0.693
[39]
  interaction score: -1.55
[40]
  interaction score: 0.589

## DENSQLEEKISQLKQKNSQLKEEIQQLEY [P5mS]
[41]
  interaction score: -1.66
[42]
  interaction score: -1.25
[43]
  interaction score: -1.17
[44]
  interaction score: -2.82
[45]
  interaction score: -0.081

## ENAALEAEIAALEYENAALEAKIAALKG
[46]
  interaction score: -2.52
[47]
  interaction score: -2.58
[48]
  interaction score: -2.38
[49]
  interaction score: -1.03
[50]
  interaction score: -2.74
[51]
  interaction score: 0.961
[52]
  interaction score: -2.52
[53]
  interaction score: 0.177
[54]
  interaction score: -2.51
[55]
  interaction score: -2.64
[56]
  interaction score: -0.24

## DENAALEAEIAALEYENAALEAKIAALKG
[57]
  interaction score: 0.14
[58]
  interaction score: -2.34
[59]
  interaction score: -1.64
[60]
  interaction score: -2.21
[61]
  interaction score: -1.11
[62]
  interaction score: 0.545
[63]
  interaction score: 0.398
[64]
  interaction score: -1.4
[65]
  interaction score: -2.25
[66]
  interaction score: 0.213
[67]
  interaction score: -1.94
